# From US6680176B2, “Identification of candidate ligands which modulate antigen presenting cells” (The United States of America, as represented by the …, priority 1999, dated 2004)
# B1: IL-12: cytokine IL-12 added to the cultures (protein, UniProt P43431 23-215; P43432 23-335, looked up)
# Interleukin-12 subunit alpha: RVIPVSGPARCLSQSRNLLKTTDDMVKTAREKLKHYSCTAEDIDHEDITRDQTSTLKTCLPLELHKNESCLATRETSSTTRGSCLPPQKTSLMMTLCLGSIYEDLKMYQTEFQAINAALQNHNHQQIILDKGMLVAIDELMQSLNHNGETLRQKPPVGEADPYRVKMKLCILLHAFSTRVVTINRVMGYLSSA
# Interleukin-12 subunit beta: MWELEKDVYVVEVDWTPDAPGETVNLTCDTPEEDDITWTSDQRHGVIGSGKTLTITVKEFLDAGQYTCHKGGETLSHSHLLLHKKENGIWSTEILKNFKNKTFLKCEAPNYSGRFTCSWLVQRNMDLKFNIKSSSSSPDSRAVTCGMASLSAEKVTLDQRDYEKYSVSCQEDVTCPTAEETLPIELALEARQQNKYENYSTSFFIRDIIKPDPPKNLQMKPLKNSQVEVSWEYPDSWSTPHSYFSLKFFVRIQRKKEKMKETEEGCNQKGAFLVEKTSTEVQCKGGNVCVQAQDRYYNSSCSKWACVPCRVRS
# Test system: CD8 killer T cells
# Assay: Replacement of T help by soluble factors in CD4 depleted anti-H-Y killer cultures (JAM Test)
# Assay type: cell-based, mouse
# Conditions: CD4 depleted primed B6 female spleen cells, male stimulators
# Source text: Two weeks to 1 year after in vivo priming, spleens were removed from the responders and depleted for CD4 T cells using the Midi MACs system (Miltenyi Biotec, Germany) with MACS magnetic beads conjugated to the anti-mouse CD4 monoclonal antibody, GK1.5. By FACS analysis with the non-competing anti-CD4 antibody RM4-4 (Pharmingen, San Diego, Calif.), the depleted populations routinely contained less than 0.2% CD4 cells.
# Two weeks or later after the last in vivo immunization, 4×10^6 spleen cells were restimulated in 2 ml cultures with 2×10^6 irradiated B6 male spleen cells or 1.5×10^5 of the various populations of dendritic cells, with or with out an exogenous source of mouse IL-2, (10% Rat Con A supernatant, from which the ConA has been removed, Collaborative Biomedical Products, Bedford Mass.). Six days later the cultures were tested for their ability to kill male and female targets using the JAM Test. (55).
molecule,measurement,value
B1,restoration of killer response in the absence of CD4 helpers by addition to the culture,did not replace the activity of helpers
